Data taken from the supplement of paper PMC5998384.

Experiments:
[1] = test system: HeLa Kyoto; assay: solubility in G1/S (NP-40 vs SDS abundance) (log2 ratio); higher = more soluble; settings: cell cycle stage: G1/S
[2] = test system: HeLa Kyoto; assay: thermal stability score vs G1/S (z-score of summed log2 fold changes over temperatures); higher = more thermally stable than in G1/S
[3] = test system: HeLa Kyoto; assay: melting temperature (median over replicates), in situ; higher = more thermally stable
[4] = test system: HeLa Kyoto; assay: solubility change mitosis vs G1/S (difference of NP-40 vs SDS log2 ratios) (log2 ratio difference); higher = more soluble in mitosis
[5] = cell cycle stage: early G1 (4.5 h after nocodazole release)
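Wherever melting temperature (median over replicates), in situ is given: HeLa Kyoto cells synchronized by double thymidine or nocodazole block, proteins quantified by TMT10plex mass spectrometry, three independent biological replicates.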
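Wherever solubility change mitosis vs G1/S (difference of NP-40 vs SDS log2 ratios) is given: synchronized HeLa Kyoto cells (double thymidine block for G1/S, nocodazole release for mitosis), protein amounts in NP-40 versus SDS lysates quantified by mass spectrometry, three biological replicates.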
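Wherever solubility in G1/S (NP-40 vs SDS abundance) is given: HeLa Kyoto cells arrested at G1/S by double thymidine block, proteins quantified by TMT10plex mass spectrometry in mild NP-40 versus SDS extracts, three biological replicates.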
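Wherever thermal stability score vs G1/S (z-score of summed log2 fold changes over temperatures) is given: synchronized HeLa Kyoto cells, proteins quantified by TMT10plex mass spectrometry, three biological replicates, mitosis taken 0.5 h after nocodazole release, G1/S directly after double thymidine block.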

Sequence of ZFR (chain, as listed by the source): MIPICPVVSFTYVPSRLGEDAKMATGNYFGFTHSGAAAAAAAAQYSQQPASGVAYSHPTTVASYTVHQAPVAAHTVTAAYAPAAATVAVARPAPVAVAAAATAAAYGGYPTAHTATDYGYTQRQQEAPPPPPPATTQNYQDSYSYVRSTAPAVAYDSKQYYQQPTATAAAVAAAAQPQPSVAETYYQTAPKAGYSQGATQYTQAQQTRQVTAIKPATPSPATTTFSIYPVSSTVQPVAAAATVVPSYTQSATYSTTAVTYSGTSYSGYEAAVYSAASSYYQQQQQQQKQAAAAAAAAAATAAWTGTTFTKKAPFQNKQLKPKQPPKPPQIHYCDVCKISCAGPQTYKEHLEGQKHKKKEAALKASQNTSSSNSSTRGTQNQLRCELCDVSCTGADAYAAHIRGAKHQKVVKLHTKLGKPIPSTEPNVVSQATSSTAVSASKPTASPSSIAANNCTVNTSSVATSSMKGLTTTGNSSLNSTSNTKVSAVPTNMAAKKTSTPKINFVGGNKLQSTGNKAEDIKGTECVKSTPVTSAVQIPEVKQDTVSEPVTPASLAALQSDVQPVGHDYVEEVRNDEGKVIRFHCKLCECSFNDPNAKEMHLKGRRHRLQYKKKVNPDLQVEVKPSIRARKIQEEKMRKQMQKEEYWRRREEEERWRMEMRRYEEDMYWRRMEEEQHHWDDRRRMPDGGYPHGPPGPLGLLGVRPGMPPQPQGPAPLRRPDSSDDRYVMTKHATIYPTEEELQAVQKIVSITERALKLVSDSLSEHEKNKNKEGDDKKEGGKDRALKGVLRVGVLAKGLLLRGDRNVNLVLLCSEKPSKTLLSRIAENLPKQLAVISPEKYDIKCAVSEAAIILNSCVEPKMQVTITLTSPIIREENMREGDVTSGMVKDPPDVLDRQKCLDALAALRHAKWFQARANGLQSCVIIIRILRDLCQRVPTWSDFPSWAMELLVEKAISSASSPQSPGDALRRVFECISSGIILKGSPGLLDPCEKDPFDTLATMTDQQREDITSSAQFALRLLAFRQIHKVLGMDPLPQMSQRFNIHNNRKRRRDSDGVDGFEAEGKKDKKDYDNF
Sequence of HSPA2 (chain, as listed by the source): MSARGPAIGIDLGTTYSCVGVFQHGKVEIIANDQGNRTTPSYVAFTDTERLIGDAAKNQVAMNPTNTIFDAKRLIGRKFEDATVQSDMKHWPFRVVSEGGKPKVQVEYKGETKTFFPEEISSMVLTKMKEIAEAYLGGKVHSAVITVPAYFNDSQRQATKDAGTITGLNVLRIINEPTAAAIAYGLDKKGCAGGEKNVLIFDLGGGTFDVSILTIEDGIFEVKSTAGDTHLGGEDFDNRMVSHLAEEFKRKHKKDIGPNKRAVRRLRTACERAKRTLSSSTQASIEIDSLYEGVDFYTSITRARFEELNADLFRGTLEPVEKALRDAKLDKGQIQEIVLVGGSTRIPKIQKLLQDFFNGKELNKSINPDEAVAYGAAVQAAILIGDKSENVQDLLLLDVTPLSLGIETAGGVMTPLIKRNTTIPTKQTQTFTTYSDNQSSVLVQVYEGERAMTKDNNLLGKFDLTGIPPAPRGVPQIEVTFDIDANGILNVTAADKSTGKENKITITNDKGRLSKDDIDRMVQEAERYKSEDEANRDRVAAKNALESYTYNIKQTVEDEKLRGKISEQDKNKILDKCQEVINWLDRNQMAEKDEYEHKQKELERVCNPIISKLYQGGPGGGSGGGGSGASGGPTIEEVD

Substance	solubility in G1/S (log2) [1]	thermal stability score [2, 5]	thermal stability score ([2]; cell cycle stage: mitosis)	melting temperature ([3]; cell cycle stage: G1/S)	melting temperature ([3]; cell cycle stage: mitosis)	solubility change mitosis (log2) [4]
MASLDDPGEVREGFLCPLCLKDLQSFYQLHSHYEEEHSGEDRDVKGQIKSLVQKAKKAKDRLLKREGDDRAESGTQGYESFSYGGVDPYMWEPQELGAVRSHLSDFKKHRAARIDHYVVEVNKLIIRLEKLTAFDRTNTESAKIRAIEKSVVPWVNDQDVPFCPDCGNKFSIRNRRHHCRLCGSIMCKKCMELISLPLANKLTSASKESLSTHTSPSQSPNSVHGSRRGSISSMSSVSSVLDEKDDDRIRCCTHCKDTLLKREQQIDEKEHTPDIVKLYEKLRLCMEKVDQKAPEYIRMAASLNAGETTYSLEHASDLRVEVQKVYELIDALSKKILTLGLNQDPPPHPSNLRLQRMIRYSATLFVQEKLLGLMSLPTKEQFEELKKKRKEEMERKRAVERQAALESQRRLEERQSGLASRAANGEVASLRRGPAPLRKAEGWLPLSGGQGQSEDSDPLLQQIHNITSFIRQAKAAGRMDEVRTLQENLRQLQDEYDQQQTEKAIELSRRQAEEEDLQREQLQMLRERELEREREQFRVASLHTRTRSLDFREIGPFQLEPSREPRTHLAYALDLGSSPVPSSTAPKTPSLSSTQPTRVWSGPPAVGQERLPQSSMPQQHEGPSLNPFDEEDLSSPMEEATTGPPAAGVSLDPSARILKEYNPFEEEDEEEEAVAGNPFIQPDSPAPNPFSEEDEHPQQRLSSPLVPGNPFEEPTCINPFEMDSDSGPEAEEPIEEELLLQQIDNIKAYIFDAKQCGRLDEVEVLTENLRELKHTLAKQKGGTD [RBSN]	0.33	0.55	1.28	50.7 °C	50.4 °C	-0.00797
MYOF	-0.326	-1.57	-1.2	53.8 °C	53.4 °C	-0.129
HSPA2	0.111	0.118	1.01	53.2 °C	52.4 °C	-0.0491
DNMBP	0.00933	-0.0907	0.88	48.8 °C	49 °C	-0.133
MAGQQFQYDDSGNTFFYFLTSFVGLIVIPATYYLWPRDQNAEQIRLKNIRKVYGRCMWYRLRLLKPQPNIIPTVKKIVLLAGWALFLFLAYKVSKTDREYQEYNPYEVLNLDPGATVAEIKKQYRLLSLKYHPDKGGDEVMFMRIAKAYAALTDEESRKNWEEFGNPDGPQATSFGIALPAWIVDQKNSILVLLVYGLAFMVILPVVVGSWWYRSIRYSGDQILIRTTQIYTYFVYKTRNMDMKRLIMVLAGASEFDPQYNKDATSRPTDNILIPQLIREIGSINLKKNEPPLTCPYSLKARVLLLSHLARMKIPETLEEDQQFMLKKCPALLQEMVNVICQLIVMARNREEREFRAPTLASLENCMKLSQMAVQGLQQFKSPLLQLPHIEEDNLRRVSNHKKYKIKTIQDLVSLKESDRHTLLHFLEDEKYEEVMAVLGSFPYVTMDIKSQVLDDEDSNNITVGSLVTVLVKLTRQTMAEVFEKEQSICAAEEQPAEDGQGETNKNRTKGGWQQKSKGPKKTAKSKKKKPLKKKPTPVLLPQSKQQKQKQANGVVGNEAAVKEDEEEVSDKGSDSEEEETNRDSQSEKDDGSDRDSDREQDEKQNKDDEAEWQELQQSIQRKERALLETKSKITHPVYSLYFPEEKQEWWWLYIADRKEQTLISMPYHVCTLKDTEEVELKFPAPGKPGNYQYTVFLRSDSYMGLDQIKPLKLEVHEAKPVPENHPQWDTAIEGDEDQEDSEGFEDSFEEEEEEEEDDD [SEC63]	-0.14	-0.144	-1.37	53 °C	53.1 °C	-0.1
MADNEKLDNQRLKNFKNKGRDLETMRRQRNEVVVELRKNKRDEHLLKRRNVPHEDICEDSDIDGDYRVQNTSLEAIVQNASSDNQGIQLSAVQAARKLLSSDRNPPIDDLIKSGILPILVHCLERDDNPSLQFEAAWALTNIASGTSEQTQAVVQSNAVPLFLRLLHSPHQNVCEQAVWALGNIIGDGPQCRDYVISLGVVKPLLSFISPSIPITFLRNVTWVMVNLCRHKDPPPPMETIQEILPALCVLIHHTDVNILVDTVWALSYLTDAGNEQIQMVIDSGIVPHLVPLLSHQEVKVQTAALRAVGNIVTGTDEQTQVVLNCDALSHFPALLTHPKEKINKEAVWFLSNITAGNQQQVQAVIDANLVPMIIHLLDKGDFGTQKEAAWAISNLTISGRKDQVAYLIQQNVIPPFCNLLTVKDAQVVQVVLDGLSNILKMAEDEAETIGNLIEECGGLEKIEQLQNHENEDIYKLAYEIIDQFFSSDDIDEDPSLVPEAIQGGTFGFNSSANVPTEGFQF [KPNA4]	0.0932	-0.466	-0.221	52.3 °C	51.9 °C	-0.0591
MSSEEGKLFVGGLNFNTDEQALEDHFSSFGPISEVVVVKDRETQRSRGFGFITFTNPEHASVAMRAMNGESLDGRQIRVDHAGKSARGTRGGGFGAHGRGRSYSRGGGDQGYGSGRYYDSRPGGYGYGYGRSRDYNGRNQGGYDRYSGGNYRDNYDN [RBM3]	0.11	-2.01	-4.74	54.2 °C	52.7 °C	0.436
MSASASVGGPVPQPPPGPAAALPPGSAARALHVELPSQQRRLRHLRNIAARNIVNRNGHQLLDTYFTLHLCSTEKIYKEFYRSEVIKNSLNPTWRSLDFGIMPDRLDTSVSCFVVKIWGGKENIYQLLIEWKVCLDGLKYLGQQIHARNQNEIIFGLNDGYYGAPFEHKGYSNAQKTILLQVDQNCVRNSYDVFSLLRLHRAQCAIKQTQVTVQKIGKEIEEKLRLTSTSNELKKKSECLQLKILVLQNELERQKKALGREVALLHKQQIALQDKGSAFSAEHLKLQLQKESLNELRKECTAKRELFLKTNAQLTIRCRQLLSELSYIYPIDLNEHKDYFVCGVKLPNSEDFQAKDDGSIAVALGYTAHLVSMISFFLQVPLRYPIIHKGSRSTIKDNINDKLTEKEREFPLYPKGGEKLQFDYGVYLLNKNIAQLRYQHGLGTPDLRQTLPNLKNFMEHGLMVRCDRHHTSSAIPVPKRQSSIFGGADVGFSGGIPSPDKGHRKRASSENERLQYKTPPPSYNSALAQPVTTVPSMGETERKITSLSSSLDTSLDFSKENKKKGEDLVGSLNGGHANVHPSQEQGEALSGHRATVNGTLLPSEQAGSASVQLPGEFHPVSEAELCCTVEQAEEIIGLEATGFASGDQLEAFNCIPVDSAVAVECDEQVLGEFEEFSRRIYALNENVSSFRRPRRSSDK [UVRAG]	0.216	0.204	-0.16	51.7 °C	52.4 °C	-0.117
MWSPEREAEAPAGGDPAGLLPPEWEEDEERMSFLFSAFKRSREVNSTDWDSKMGFWAPLVLSHSRRQGVVRLRLRDLQEAFQRKGSVPLGLATVLQDLLRRGELQRESDFMASVDSSWISWGVGVFLLKPLKWTLSNMLGDNKVPAEEVLVAVELLKEKAEEVYRLYQNSPLSSHPVVALSELSTLCANSCPDERTFYLVLLQLQKEKRVTVLEQNGEKIVKFARGPRAKVSPVNDVDVGVYQLMQSEQLLSRKVESLSQEAERCKEEARRACRAGKKQLALRSLKAKQRTEKRIEALHAKLDTVQGILDRIYASQTDQMVFNAYQAGVGALKLSMKDVTVEKAESLVDQIQELCDTQDEVSQTLAGGVTNGLDFDSEELEKELDILLQDTTKEPLDLPDNPRNRHFTNSVPNPRISDAELEAELEKLSLSEGGLVPSSKSPKRQLEPTLKPL [CHMP7]	0.221	0.579	1.08	49.2 °C	48.9 °C	-0.0049
MAPARCFSARLRTVFQGVGHWALSTWAGLKPSRLLPQRASPRLLSVGRADLAKHQELPGKKLLSEKKLKRYFVDYRRVLVCGGNGGAGASCFHSEPRKEFGGPDGGDGGNGGHVILRVDQQVKSLSSVLSRYQGFSGEDGGSKNCFGRSGAVLYIRVPVGTLVKEGGRVVADLSCVGDEYIAALGGAGGKGNRFFLANNNRAPVTCTPGQPGQQRVLHLELKTVAHAGMVGFPNAGKSSLLRAISNARPAVASYPFTTLKPHVGIVHYEGHLQIAVADIPGIIRGAHQNRGLGSAFLRHIERCRFLLFVVDLSQPEPWTQVDDLKYELEMYEKGLSARPHAIVANKIDLPEAQANLSQLRDHLGQEVIVLSALTGENLEQLLLHLKVLYDAYAEAELGQGRQPLRW [MTG2]	0.239	-0.446	0.103	49.6 °C	49.1 °C	0.00581
MHQQKRQPELVEGNLPVFVFPTELIFYADDQSTHKQVLTLYNPYEFALKFKVLCTTPNKYVVVDAAGAVKPQCCVDIVIRHRDVRSCHYGVIDKFRLQVSEQSQRKALGRKEVVATLLPSAKEQQKEEEEKRLKEHLTESLFFEQSFQPENRAVSSGPSLLTVFLGVVCIAALMLPTLGDVESLVPLYLHLSVNQKLVAAYILGLITMAILRT [MOSPD1]	0.0717	-1.29	-2.15	54.2 °C	54.9 °C	0.352
MAGASVKVAVRVRPFNARETSQDAKCVVSMQGNTTSIINPKQSKDAPKSFTFDYSYWSHTSTEDPQFASQQQVYRDIGEEMLLHAFEGYNVCIFAYGQTGAGKSYTMMGRQEPGQQGIVPQLCEDLFSRVSENQSAQLSYSVEVSYMEIYCERVRDLLNPKSRGSLRVREHPILGPYVQDLSKLAVTSYADIADLMDCGNKARTVAATNMNETSSRSHAVFTIVFTQRCHDQLTGLDSEKVSKISLVDLAGSERADSSGARGMRLKEGANINKSLTTLGKVISALADMQSKKRKSDFIPYRDSVLTWLLKENLGGNSRTAMIAALSPADINYEETLSTLRYADRTKQIRCNAIINEDPNARLIRELQEEVARLRELLMAQGLSASALEGLKTEEGSVRGALPAVSSPPAPVSPSSPTTHNGELEPSFSPNTESQIGPEEAMERLQETEKIIAELNETWEEKLRKTEALRMEREALLAEMGVAVREDGGTVGVFSPKKTPHLVNLNEDPLMSECLLYHIKDGVTRVGQVDMDIKLTGQFIREQHCLFRSIPQPDGEVVVTLEPCEGAETYVNGKLVTEPLVLKSGNRIVMGKNHVFRFNHPEQARLERERGVPPPPGPPSEPVDWNFAQKELLEQQGIDIKLEMEKRLQDLENQYRKEKEEADLLLEQQRLYADSDSGDDSDKRSCEESWRLISSLREQLPPTTVQTIVKRCGLPSSGKRRAPRRVYQIPQRRRLQGKDPRWATMADLKMQAVKEICYEVALADFRHGRAEIEALAALKMRELCRTYGKPDGPGDAWRAVARDVWDTVGEEEGGGAGSGGGSEEGARGAEVEDLRAHIDKLTGILQEVKLQNSSKDRELQALRDRMLRMERVIPLAQDHEDENEEGGEVPWAPPEGSEAAEEAAPSDRMPSARPPSPPLSSWERVSRLMEEDPAFRRGRLRWLKQEQLRLQGLQGSGGRGGGLRRPPARFVPPHDCKLRFPFKSNPQHRESWPGMGSGEAPTPLQPPEEVTPHPATPARRPPSPRRSHHPRRNSLDGGGRSRGAGSAQPEPQHFQPKKHNSYPQPPQPYPAQRPPGPRYPPYTTPPRMRRQRSAPDLKESGAAV [KIF1C]	-0.0137	0.369	0.754	48.5 °C	50.2 °C	-0.0384
MKPLVVFVLGGPGAGKGTQCARIVEKYGYTHLSAGELLRDERKNPDSQYGELIEKYIKEGKIVPVEITISLLKREMDQTMAANAQKNKFLIDGFPRNQDNLQGWNKTMDGKADVSFVLFFDCNNEICIERCLERGKSSGRSDDNRESLEKRIQTYLQSTKPIIDLYEEMGKVKKIDASKSVDEVFDEVVQIFDKEG [CMPK1]	0.272	1.52	0.905	51.1 °C	52.2 °C	0.065
ZFR	-0.167	0.655	-0.928	52.4 °C	51.9 °C	0.103
